Data taken from patent US8263074B2, “Fibroblast growth factor receptor-1 inhibitors and methods of treatment thereof” (ImClone LLC, priority 2003, dated 2012).

Legend:
FGFR-1(IIIc) = FGFR-1(IIIc) (Homo sapiens, UniProt P11362); assay: ELISA binding assay; design: purchased R&D Systems
Experimental: (§1) Recombinant FGFRs (R&D systems) at a concentration of 1 μg/ml in PBS were coated on 96-well plates at room temperature for 2 hrs. The plates were washed 3 times with 0.2% Tween20/PBS, and blocked with 5% milk/PBS for 2 hrs before use. FR1-H7 or FR1-A1 was added to the plate and serially diluted in 0.2% Tween20/PBS. The plate was incubated at room temperature for 2 more hrs. The captured antibodies were detected using an anti-human light chain monoclonal antibody conjugated with […] (Pierce Biotechnology, Rockford, Ill.) solution prepared according to supplier's instructions.

FGFR-1c = target: T1, FGFR-1c (Homo sapiens, UniProt P11362); assay: BiaCore binding kinetics; settings: BiaCore biosensor; read-out: Binding Kinetic (Kd), FGFR-1c
T1 construct: purchased R&D Systems
T1 sequence (P11362 22-822): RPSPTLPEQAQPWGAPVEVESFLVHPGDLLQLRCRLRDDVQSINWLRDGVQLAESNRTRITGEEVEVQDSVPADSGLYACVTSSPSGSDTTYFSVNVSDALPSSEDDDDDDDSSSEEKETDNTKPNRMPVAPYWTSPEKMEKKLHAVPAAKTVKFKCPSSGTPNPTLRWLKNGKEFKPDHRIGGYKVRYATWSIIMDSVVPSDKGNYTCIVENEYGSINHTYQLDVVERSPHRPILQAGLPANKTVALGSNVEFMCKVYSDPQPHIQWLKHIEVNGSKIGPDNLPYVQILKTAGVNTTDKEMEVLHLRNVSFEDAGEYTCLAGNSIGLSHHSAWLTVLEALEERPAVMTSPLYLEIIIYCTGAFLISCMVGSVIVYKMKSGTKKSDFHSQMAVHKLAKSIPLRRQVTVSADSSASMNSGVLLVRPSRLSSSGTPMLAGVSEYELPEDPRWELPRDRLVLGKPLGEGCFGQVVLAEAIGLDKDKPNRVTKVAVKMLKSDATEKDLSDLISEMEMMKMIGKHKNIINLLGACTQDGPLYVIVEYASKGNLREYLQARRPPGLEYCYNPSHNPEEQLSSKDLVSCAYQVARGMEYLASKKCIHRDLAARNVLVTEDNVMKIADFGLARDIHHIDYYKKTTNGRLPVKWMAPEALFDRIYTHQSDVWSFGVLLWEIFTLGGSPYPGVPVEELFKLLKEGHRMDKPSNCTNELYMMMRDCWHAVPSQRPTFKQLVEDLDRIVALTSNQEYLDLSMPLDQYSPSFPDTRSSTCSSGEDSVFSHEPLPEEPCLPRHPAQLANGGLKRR

[1] = tested on: Human umbilical vascular endothelial cells (HUVECs); assay: HUVEC proliferation assay (3H-thymidine); type: cell-based; settings: 3H-thymidine incorporation
Experimental: Human umbilical vascular endothelial cells (HUVECs) were seeded in 96-well tissue culture plates at a concentration of 5×10^4 cells/ml. After attachment, cells were quiesced in EMG-2 medium lacking EGF, VEGF and FGF-2 (Cambrex, East Rutherford, N.J.) for 24 hrs. Quiescent media in wells were aspirated and replaced with EMG-2 that contained all the growth factors mentioned above. Antibodies were serially diluted and added to the wells. Cells were incubated at 37° C. with 5% CO2 in a Muaire™ DH autoflow incubator (Cryostar Industries, Inc., White Hall, Pa.) for 48-72 hrs. Cell growth was determined by monitoring ^3H-thymidine incorporation using a 1450 Micorbeta liquid scintillation counter (Perkin Elmer, Gaithersburg, Md.).

[2] = Single-dose short-term study in female athymic nude mice: body and tissue weights, serum chemistry; type: in vivo
Experimental: Short-term effects of the FR1-H7 antibody on serum levels of insulin, leptin, glucose, and triglycerides were examined by injecting 4 mg/kg antibody or control vehicle into female athymic nude mice. Samples were collected and evaluated before treatment and 6, 24, and 48 hours after treatment. Alanine aminotransferase (ALT), […], blood urea nitrogen (BUN), total serum proteins, and serum albumin levels were measured using serum samples taken 48 hours after treatment. The mice were sacrificed and weights of their left parametrial fat pad, left tibialis anterior muscle, left posterior liver lobe, and spleen were also taken.

[3] = Repeated-dose study in female athymic nude mice: body weight, food intake, rearing, blood glucose; type: in vivo
Experimental: Female athymic nude mice (Cr1:NU/NU-nuBR, Charles River Laboratories, Wilmington, Mass.) were housed 4-5 per cage. Mice were given autoclaved food (Lab Diet #5001, PMI Feeds Inc., St. Louis, Mo.) and water ad libitum. All animal use in this study was conducted in compliance with approved institutional animal care and use protocols, and according to NIH guidelines (Guide for the Care and Use of Laboratory Animals, NIH publication no. 86-23, 1985).
In one assay, mice were injected intraperitoneally (i.p.) with FR1-H7 at 0.19, 1.9, and 19 mg/kg body weight (n=5 per group). In another assay, mice were injected subcutaneously (s.c.) with the antibody, at 0.4, 4, and 40 mg/kg body weight. In control arms, mice were treated with saline i.p. or s.c. In addition, one group of mice was left untreated (n=4). All treatments were given at a volume of 10 μl/g body weight in Saline. Treatments were started on a Wednesday (Day 0) with additional treatments on the following Friday, Monday, Wednesday, and Friday. After this 9-day treatment period mice received no additional treatments.
Alternatively, female athymic nude mice were injected (i.p.) with saline, 2 mg/kg, or 20 mg/kg FR1-A1 on a Monday (Day 0) and Wednesday. Body weights were measured before the first injection, and on Day 2 and Day 5. Food intake per group was measured 2 days after the first injection.
The body weights of all animals were measured 3 times/week. Food consumption, behavior, and serum glucose were evaluated as follows. Food Intake Measurement: Prior to the treatment on Day 2 mice were placed in a new cage and the weight of the food container in the cage top was weighed. Prior to the treatment on Day 5 the weight of the food container was measured again. The difference in the Day 2 to Day 5 food container weight was divided by the number of mice per cage and the number of days between the measurements to give a food intake per mouse per 24 hrs. Activity Measurement: On Day 12, 3 days after the final treatment, mice were placed individually into a new cage and the number of rearings was counted over a 1 min period. Blood Glucose Measurement On Day 16, 7 days after the final treatment, non-fasted blood glucose was measured in blood collected from the tip of the tail using an Ascensia Elite XL blood glucose meter (glucose oxidase method, Bayer, Pittsburg, Pa.).

FGFR-3b = target: T2, FGFR-3b (Homo sapiens, UniProt P22607); assay: BiaCore binding kinetics; settings: BiaCore kinetic analysis
T2 construct: purchased R&D Systems
T2 sequence (P22607 23-808 isoform P22607-2 limits assumed): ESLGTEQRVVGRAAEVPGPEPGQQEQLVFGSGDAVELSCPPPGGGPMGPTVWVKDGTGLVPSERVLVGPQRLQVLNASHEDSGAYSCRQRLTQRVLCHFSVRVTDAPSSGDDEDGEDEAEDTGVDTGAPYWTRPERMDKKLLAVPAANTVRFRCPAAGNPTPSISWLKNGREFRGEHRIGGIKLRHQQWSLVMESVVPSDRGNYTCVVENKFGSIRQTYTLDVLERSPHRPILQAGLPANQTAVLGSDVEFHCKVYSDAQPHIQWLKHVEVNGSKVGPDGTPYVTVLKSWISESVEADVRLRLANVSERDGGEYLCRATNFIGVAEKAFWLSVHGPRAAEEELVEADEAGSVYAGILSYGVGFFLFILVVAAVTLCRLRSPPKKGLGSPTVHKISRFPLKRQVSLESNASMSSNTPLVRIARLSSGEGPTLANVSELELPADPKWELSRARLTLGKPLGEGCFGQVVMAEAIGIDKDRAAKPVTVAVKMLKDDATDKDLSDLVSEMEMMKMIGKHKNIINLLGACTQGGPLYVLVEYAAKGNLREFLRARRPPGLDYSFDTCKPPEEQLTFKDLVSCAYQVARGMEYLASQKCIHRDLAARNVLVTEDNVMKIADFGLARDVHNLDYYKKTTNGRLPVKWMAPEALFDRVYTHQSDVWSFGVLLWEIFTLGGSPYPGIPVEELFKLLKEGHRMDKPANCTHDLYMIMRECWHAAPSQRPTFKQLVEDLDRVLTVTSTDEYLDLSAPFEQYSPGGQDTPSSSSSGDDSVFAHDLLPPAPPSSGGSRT

FGFR-1(IIIb) = target: T3, FGFR-1(IIIb) (Homo sapiens, UniProt P11362); assay: ELISA binding assay
T3 construct: purchased R&D Systems
T3 sequence (P11362 22-822 isoform P11362-19 limits assumed): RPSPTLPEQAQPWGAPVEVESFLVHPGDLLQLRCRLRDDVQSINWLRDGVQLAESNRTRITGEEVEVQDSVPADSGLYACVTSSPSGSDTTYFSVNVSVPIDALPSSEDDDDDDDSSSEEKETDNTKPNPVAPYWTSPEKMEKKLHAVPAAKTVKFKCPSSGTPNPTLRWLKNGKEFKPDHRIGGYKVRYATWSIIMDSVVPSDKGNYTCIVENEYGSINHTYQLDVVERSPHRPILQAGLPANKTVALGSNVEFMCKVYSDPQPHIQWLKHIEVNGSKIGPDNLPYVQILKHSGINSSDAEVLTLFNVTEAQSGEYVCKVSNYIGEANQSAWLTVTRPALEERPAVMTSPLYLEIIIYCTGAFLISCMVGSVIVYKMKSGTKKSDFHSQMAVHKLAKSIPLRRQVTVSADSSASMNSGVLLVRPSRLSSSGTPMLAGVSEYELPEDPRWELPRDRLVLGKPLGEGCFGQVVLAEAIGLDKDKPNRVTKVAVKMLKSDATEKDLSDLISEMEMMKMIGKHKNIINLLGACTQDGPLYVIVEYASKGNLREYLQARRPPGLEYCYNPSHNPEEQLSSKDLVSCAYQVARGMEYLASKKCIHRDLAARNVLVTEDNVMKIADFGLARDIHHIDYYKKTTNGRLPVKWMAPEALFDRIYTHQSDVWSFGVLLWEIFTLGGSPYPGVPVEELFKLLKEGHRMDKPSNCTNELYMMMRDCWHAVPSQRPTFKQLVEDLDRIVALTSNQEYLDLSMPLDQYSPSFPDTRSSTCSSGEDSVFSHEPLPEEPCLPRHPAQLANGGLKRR
Experimental: as §1

other FGFRs = assay: ELISA binding assay
Experimental: as §1

FGFR-1(IIIc), sequence (P11362 22-822): as the sequence (P11362 22-822) above

B1: FR1-H7: human monoclonal antibody from phage Fab library, specific for FGFR-1(IIIb) and/or FGFR-1(IIIc), and/or FGFR-4(IIIc); VH/VL SEQ ID NOS:7, 8 (antibody, listed as Homo sapiens)
VH: MAEVQLVQSGAEVKKPGASVKVSCKVSGYTFTDYYMHWVQQAPGKGLEWMGLVDPEDGETIYAEKFQGRVTITADTSTDTAYMELSSLRSEDTAVYYCARDDYMDVWGKGTLVTVSSASTKGP
VL: LETTLTQSPDTLSLSPGEGATLSCRASQSVSGSALAWYQQKPGQAPRLLIYDASSRATGVPDRFSGSGSGADFSLTISRLEPEDFAVYSCQQYGSSPLTFGPGTKVDVKRTVAAPSVFIFPPSDEQLKSGTASVVCLLNNFYPREAKVQWKVD
binding to FGFR-1(IIIc) (FGFR-1(IIIc)): strong affinities
Kd (FGFR-1c): 0.04 nM
proliferation of HUVECs in vitro [1]: inhibited the proliferation of HUVECs in vitro in a dose-dependant manner
serum insulin level ([2]; single 4 mg/kg): significantly reduced
serum leptin level ([2]; single 4 mg/kg): significantly reduced
serum triglycerides level ([2]; single 4 mg/kg): significantly reduced
reduction of averaged body weight compared to control groups ([2]; single 4 mg/kg s.c., 48 hours): approximately 6%
weight reduction of parametrial fat pad ([2]; single 4 mg/kg s.c., 48 hours): approximately 60%
weights of muscle, liver, and spleen ([2]; single 4 mg/kg s.c., 48 hours): appear to be normal
levels of ALT, CPK, BUN, total serum proteins, and serum albumin versus control ([2]; single 4 mg/kg, 48 hours): no significant differences
serum glucose level ([2]; single 4 mg/kg, 48 hours after treatment): did not affect
moderate weight loss continued one week after treatment was stopped ([3]; 1.9 mg/kg): ~0.5 g
time to complete weight recovery after treatment was stopped ([3]; 1.9 mg/kg): 25 days
weight loss of the total body weight ([3]; 1.9 mg/kg i.p., within the first 3 treatments): ~20%
lagging time of first significant weight gain after stop of treatments ([3]; 4 mg/kg s.c.): 14 days
unusual weight loss of the total body weight, one animal euthanized ([3]; 19 mg/kg group): ~50%
lagging time of first significant weight gain after stop of treatments ([3]; 19 mg/kg i.p.): 24 days
reduction of non-fasting blood glucose as fraction of the normal glucose level ([3]; 19 mg/kg i.p. and 40 mg/kg s.c. groups, one week after end of treatment): ⅓
lagging time of first significant weight gain after stop of treatments ([3]; 40 mg/kg s.c.): 19 days
exploratory behavior (rearings per min in a novel environment) ([3]; Day 12): not significantly altered
maximal weight loss as fraction of the averaged body weight of the controls ([3]; dosage higher than 4 mg/kg): ⅓
reduction of non-fasting food intake ([3]; groups that lost weight, between second and third treatment): approximately 35%
body weight change ([3]; two lowest dosages 0.19 and 0.4 mg/kg): slight weight gains
Kd (FGFR-3b): > 1000 nM
binding to FGFR-1(IIIb) (FGFR-1(IIIb)): strong affinities
binding to the other FGFRs (other FGFRs): does not recognize
